The text below walks through data of patent publication US4981788A, “Novel acetylpolyamine amidohydrolase” (Kyowa Hakko Kogyo Co., Ltd., priority 1987, dated 1991).

Holding throughout (assay type): biochemical, Mycoplana bullata
Substrate in data set [1]: CC(=O)NCCCNCCCCN
As to the kind of experiment: Enzyme activity on acetylpolyamine substrates, partially purified product (substrate specificity, optimum pH/temperature, Km). Conditions: other: pH 7.0, Lineweaver-Burk plot. The procedure:
(§1) Activity of the present enzyme (partially purified products) is measured according to the following procedure. That is, 0.1 ml of an enzyme solution is added to a reagent solution consisting of 1.5 ml of 0.1 M phosphate buffer (pH 7.0), 0.05 ml of 50 mM acetylpolyamine, 0.4 U of putrescine oxidase (when acetylputrescine, acetylcadaverine or acetylspermidine is used as substrate) or polyamine oxidase (when acetylspermidine or acetylspermine is used as substrate), 0.5 ml of 2.4 mM 4-aminoantipyrine, 0.5 ml of 42 mM phenol and 20 U of peroxidase. The mixture is incubated at 37° C., and the absorbance of quinoneimine pigment formed at 500 nm is measured.
(§2) In terms of the enzyme activity, the amount of enzyme that can hydrolyze 1 μmole of a substrate in one minute is defined as one unit (1 U).
(§3) The relative activities of acetylpolyamine amidohydrolases against various type of acetylpolyamine, defining the activities against acetylputrescine as 100 under a condition of pH 7.0, are as shown in Table 1 below.
(§4) Enzyme activity was measured at different pH levels ranging from 6 to 10 by using bis-Tris propane buffer solutions. The optimum pH was 9 for acetylputrescine and acetylcadaverine, and 8 for N^1 -acetylspermidine, N^8 -acetylspermidine and acetylspermine, as shown in FIG. 1.
(§5) The optimum working temperature for the present enzyme was about 50° C., when the relative activity was determined, using acetylputrescine as substrate, as shown in FIG. 4. The optimum temperatures for the other acetylpolyamine amidohydrolases were 30° to 40° C. This clearly distinguishes the present enzyme from the known enzymes.
(§6) Km values of the present enzyme and the other known enzymes for various types of acetylpolyamine at pH 7.0 were determined from the Line weaver-Burk plot [refer to J. Am. Chem. Soc., 56, 658 (1934)].

Substrate in data set [2]: CC(=O)NCCCCNCCCN
The data set is described as above. As to conditions: other: pH 7.0, Lineweaver-Burk plot. On the procedure: as §1, §2, §3, §4, §5, §6

Substrate in data set [3]: CC(=O)NCCCCCN
Described as above. Conditions: other: pH 7.0, Lineweaver-Burk plot. On the procedure:
as §1, §2, §3, §4, §5, §6

Substrate in data set [4]: CC(=O)NCCCNCCCCN
As to the kind of experiment: Enzyme activity on acetylpolyamine substrates, product purified to homogeneity (Method 2 / Method 3). Conditions: other: pH 9.0, Lineweaver-Burk plot. An excerpt: (§7) [Method 2] (Assay when acetylputrescine, acetylcadaverine, N^1 -acetylspermidine and N^8 -acetylspermidine are used as substrate:)
(§8) The acetylpolyamine can be hydrolyzed by the acetylpolyamine amidohydrolase, as described in [Method 1], and the corresponding free polyamine thus formed is then oxidized by putrescine oxidase. Putrescine oxidase derived from Micrococcus rubens is known to have an activity upon putrescine, cadaverine and spermidine [Adachi, et al., Agric. Biol. Chem, 30, 1202 (1966)]. […] The actual analytical procedure is as described below.
(§9) The above reagents, (b) through (h), were put in a cuvette (d: 1.0 cm) and the mixture was preincubated at 37° C. for 2 minutes. The substrate solution (a) was then added, and the resulting mixture was incubated at 37° C. Absorbance at 500 nm was measured over a period of 3 to 5 minutes, and the change in absorbance per minute (ΔODsample) was determined from the linear portion of the plotted curve. For control, the same procedure as above was carried out, using distilled water as reference.
(§10) One unit of acetylpolyamine amidohydrolase is defined as its amount necessary to hydrolyze 1 μmole of acetylputrescine at 37° C. for one minute (or the amount necessary to form 0.5 μmole of quinoneimine pigment formed in the method for measuring the enzyme activity described above).
(§11) [Method 3] (Assay when acetylspermine is used as substrate:)
(§12) Acetylspermine is hydrolyzed by the action of acetylpolyamine amidohydrolase into free form of spermine. The free form of spermine can be oxidized by a polyamine oxidase derived from Aspergillus terreus to produce hydrogen peroxide. […] Thus, the enzyme activity can be measured by quantitative determination of the hydrogen peroxide according to the method described above. […]
(§13) Reagents (b) through (d) given in item (1) were put in a test tube and the mixture was preincubated at 37° C. for 2 minutes. […] A sample solution (200 μl), taken from the eluate containing free form of spermine, was mixed in a cuvette with reagents (a) through (e) given in item (2) above, the mixture was incubated at 37° C. for 10 minutes, and the absorbance at 755 nm was measured. […]
(§14) The concentration of free form of spermine in the reaction mixture can be determined from a calibration curve previously prepared on the basis of aqueous soluitons of free form of spermine with different concentrations. […]
(§15) The activities upon acetylputrescine, acetylcadaverine, N^1 -acetylspermidine and N^8 -acetylspermidine were measured by [Method 2] in a phosphate buffer (pH 9.0) at a substrate concentration of 0.833 mM, and the activity upon acetyl-spermine was measured by [Method 3] under the same conditions. […] Km values, determined from the Lineweaver-Burk plot, are also listed in the same table. […]

Substrate in data set [5]: CC(=O)NCCCCNCCCN
Described as above. As to conditions: other: pH 9.0, Lineweaver-Burk plot.
Description: as §7, §8, §9, §10, §11, §12, §13, §14, §15

Substrate in data set [6]: CC(=O)NCCCCCN
Described as above. Conditions: other: pH 9.0, Lineweaver-Burk plot.
Description: as §7, §8, §9, §10, §11, §12, §13, §14, §15

Substrate in data set [7]: CC(=O)NCCCCN
The description is as above. As to conditions: other: pH 9.0, Lineweaver-Burk plot.
Description: as §7, §8, §9, §10, §11, §12, §13, §14, §15

Broadly, the Km is the concentration of substrate that gives half-maximal velocity.

B1: acetylpolyamine amidohydrolase (the present enzyme, partially purified product) (Mycoplana ramosa) (protein)
chain: MRVIFSEDHKLRNAKTELYGGELVPPFEAPFRAEWILAAVKEAGFDDVVAPARHGLETVLKVHDAGYLNFLETAWDRWKAAGYKGEAIATSFPVRRTSPRIPTDIEGQIGYYCNAAETAISPGTWEAALSSMASAIDGADLIAAGHKAAFSLCRPPGHHAGIDMFGGYCFINNAAVAAQRLLDKGAKKIAILDVDFHHGNGTQDIFYERGDVFFASLHGDPAEAFPHFLGYAEETGKGAGAGTTANYPMGRGTPYSVWGEALTDSLKRIAAFGAEAIVVSLGVDTFEQDPISFFKLTSPDYITMGRTIAASGVPLLVVMEGGYGVPEIGLNVANVLKGVAG
notes: novel acetylpolyamine amidohydrolase of the present invention accumulated within the grown cells; made in house; host or cells: Mycoplana (natural producer; cells grown in culture)
Take B1: the Km in data set [1] turned out to be 270 µM; in data set [2] it was 560 µM; in data set [3] it was 130 µM.

B2: acetylpolyamine amidohydrolase (the present enzyme, product purified to homogeneity) (Mycoplana ramosa) (protein)
chain: MRVIFSEDHKLRNAKTELYGGELVPPFEAPFRAEWILAAVKEAGFDDVVAPARHGLETVLKVHDAGYLNFLETAWDRWKAAGYKGEAIATSFPVRRTSPRIPTDIEGQIGYYCNAAETAISPGTWEAALSSMASAIDGADLIAAGHKAAFSLCRPPGHHAGIDMFGGYCFINNAAVAAQRLLDKGAKKIAILDVDFHHGNGTQDIFYERGDVFFASLHGDPAEAFPHFLGYAEETGKGAGAGTTANYPMGRGTPYSVWGEALTDSLKRIAAFGAEAIVVSLGVDTFEQDPISFFKLTSPDYITMGRTIAASGVPLLVVMEGGYGVPEIGLNVANVLKGVAG
notes: novel acetylpolyamine amidohydrolase of the present invention accumulated within the grown cells; made in house; host or cells: Mycoplana (natural producer)
As to B2, the Michaelis-Menten constant (Km) in data set [4] stood at 130 µM; in data set [5], 310 µM; in data set [6] it was 50 µM; in data set [7] it was 220 µM.
